± gives the uncertainty stated by the source.
Experiment: self-splicing fitness, log relative to wild type (ln ratio); higher = more splicing; Tetrahymena group I intron in knt gene, E. coli kanamycin selection, DiMSum; sequences stand for … in CUCUCU…GGAGGGAAAAGUUAUCAGGCAUGCACCUGGUAGCUAGUCUUUAAACCAAUAGAUUGCAUCGGUUUAAAAGGCAAGACCGUCAAAUUGCGGGAAAGGGGUCAACAGCCGUUCAGUACCAAGUCUCAGGGGAAACUUUGAGAUGGCCUUGCAAAGGGUAUGGUAAUAAGCUGACGGACAUGGUCCUAACCACGCAGCCAAGUCCUAAGUCAACAGAUCUUCUGUUGAUAUGGAUGCAGUUCACAGACUAAAUGUCGGUCGGGGAAGAUGUAUUCUUCUCAUAAGAUAUAGUCGGACCUCUCCUUAAUGGGAGCUAGCGGAUGAAGUGAUGCAACACUGGAGCCGCUGGGAACUAAUUUGUAUGCGAAAGUAUAUUGAUUAGUUUUGGAGUACUCGUGGUCG
Procedure, shortened: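 Library with all eight P1ex-region intron nucleotides randomised, intron inside the knt kanamycin-resistance gene on pET-22b(+), in E. coli BL21(DE3). Cells grew overnight at 37°C or 30°C on LB agar with or without 25 μg/mL kanamycin (plus 100 μg/mL carbenicillin, 50 μM IPTG, 0.2% rhamnose), in six replicate transformations. Pooled colonies were amplicon-sequenced on Illumina HiSeq 2500. DiMSum fitness is the error-weighted combination of wild-type-normalised replicate fold changes, kanamycin versus none.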

Sequence | self-splicing fitness (ln) (30 °C) | self-splicing fitness (ln) (37 °C)
AGCUAGCAAUAUUACGCUCG | -2.6 ± 0.19 | -1.53 ± 0.17
AGCUAGCAAUAUUACGGACC | -0.63 ± 0.12 | -0.00494 ± 0.17
AGCUAGCAAUAUUACGGCCA | -0.689 ± 0.15 | 0.469 ± 0.18
AGCUAGCAAUAUUACGGCUU | -3.43 ± 0.21 | -2.62 ± 0.23
AGCUAGCAAUAUUACGGGCU | -3.47 ± 0.27 | -2.91 ± 0.36
AGCUAGCAAUAUUACGGGGG | -3.05 ± 0.31 | -1.64 ± 0.27
AGCUAGCAAUAUUACGGUCU | -0.425 ± 0.068 | 0.136 ± 0.088
AGCUAGCAAUAUUACGGUGG | -2.04 ± 0.092 | -2.46 ± 0.17
AGCUAGCAAUAUUACGUACU | -0.454 ± 0.095 | -0.144 ± 0.12
AGCUAGCAAUAUUACGUAGU | -3.32 ± 0.12 | -2.85 ± 0.14
AGCUAGCAAUAUUACGUGCU | -3.87 ± 0.35 | -2.44 ± 0.23
AGCUAGCAAUAUUACGUGUU | -1.86 ± 0.14 | -2.11 ± 0.14
AGCUAGCAAUAUUACGUUAC | -3.52 ± 0.27 | -1.87 ± 0.18
AGCUAGCAAUAUUACGUUGG | -3.61 ± 0.19 | -2.03 ± 0.18
AGGAAGCAAUAUUACGAAUC | -2.86 ± 0.25 | –
AGGAAGCAAUAUUACGAAUU | -2.58 ± 0.13 | -1.45 ± 0.15
AGGAAGCAAUAUUACGACCG | -0.0847 ± 0.2 | 0.135 ± 0.23
AGGAAGCAAUAUUACGAGGA | -2.39 ± 0.29 | -2.32 ± 0.22
AGGAAGCAAUAUUACGAGUC | -2.85 ± 0.35 | -1.61 ± 0.27
AGGAAGCAAUAUUACGAUCG | -1.27 ± 0.16 | -0.489 ± 0.16
AGGAAGCAAUAUUACGCACU | -0.845 ± 0.22 | -1.35 ± 0.29
AGGAAGCAAUAUUACGCAUG | -3.2 ± 0.16 | -1.31 ± 0.12
AGGAAGCAAUAUUACGCCAU | -3.16 ± 0.27 | -2 ± 0.38
AGGAAGCAAUAUUACGCCCG | -0.151 ± 0.17 | -0.394 ± 0.2

Sequence | self-splicing fitness (ln) (30 °C) | self-splicing fitness (ln) (37 °C)
AGGAAGCAAUAUUACGCCGA | -1.95 ± 0.17 | -0.0948 ± 0.12
AGGAAGCAAUAUUACGCGCC | -1.61 ± 0.29 | -0.761 ± 0.27
AGGAAGCAAUAUUACGCUGA | -2.96 ± 0.23 | -1.97 ± 0.22
AGGAAGCAAUAUUACGCUUU | -4.15 ± 0.39 | -2.32 ± 0.27
AGGAAGCAAUAUUACGGAGG | -2.71 ± 0.34 | -2.28 ± 0.35
AGGAAGCAAUAUUACGGCUA | -0.35 ± 0.11 | 0.0571 ± 0.15
AGGAAGCAAUAUUACGGGCU | -1.72 ± 0.12 | -0.915 ± 0.13
AGGAAGCAAUAUUACGGGUA | -2 ± 0.24 | -1.6 ± 0.21
AGGAAGCAAUAUUACGGUGG | -3.94 ± 0.22 | -1.64 ± 0.28
AGGAAGCAAUAUUACGUACC | -0.353 ± 0.12 | -0.748 ± 0.16
AGGAAGCAAUAUUACGUAGU | -2.73 ± 0.15 | -2.63 ± 0.21
AGGAAGCAAUAUUACGUCCG | -0.623 ± 0.16 | 0.408 ± 0.2
AGGAAGCAAUAUUACGUCGC | -2.62 ± 0.28 | -2.06 ± 0.24
AGGAAGCAAUAUUACGUGAC | -3.65 ± 0.22 | -2.45 ± 0.15
AGGAAGCAAUAUUACGUGUC | -3.14 ± 0.27 | -1.57 ± 0.19
AGGCAGCAAUAUUACGAAAG | -3.39 ± 0.22 | -2.46 ± 0.22
AGGCAGCAAUAUUACGACCU | -1.51 ± 0.14 | -1.28 ± 0.17
AGGCAGCAAUAUUACGACUA | 0.127 ± 0.11 | -0.125 ± 0.12
AGGCAGCAAUAUUACGAGCG | -1.13 ± 0.074 | 0.237 ± 0.088
AGGCAGCAAUAUUACGAGGG | -2.52 ± 0.11 | -2.83 ± 0.23
AGGCAGCAAUAUUACGAUUC | -1.71 ± 0.13 | -0.305 ± 0.16
AGGCAGCAAUAUUACGCAUG | -2.69 ± 0.17 | -0.809 ± 0.17
AGGCAGCAAUAUUACGCCCU | -2.89 ± 0.4 | –
AGGCAGCAAUAUUACGCCGG | -1.09 ± 0.15 | -1.66 ± 0.17

From the supplement of paper PMC7877785
